Molecular target: Salmonella typhimurium oxaloacetate decarboxylase sodium pump (StOAD) β subunit (Salmonella typhimurium) (UniProt Q03031)
Assay: cryo-EM structure; purified StOAD βγ sub-complex in 20 mM Tris pH 7.5, 100 mM sodium chloride, 2 mM DTT, 0.02% DDM; C3 symmetry imposed; 3.88 Å

- stoichiometry N: 3
Substance: Salmonella typhimurium oxaloacetate decarboxylase sodium pump (StOAD) β subunit (from UniProt Q03031 1-433) (natural protein)

Reference: PMC7274780
